# Measured values from the NTF2 design screens of Basanta et al. (2020).
# Assay: protease stability score; higher = more stable; yeast display proteolysis, trypsin and chymotrypsin;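 further: relative to predicted unfolded state with 0 unfolded-like and 1 meaning tenfold more protease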
row,Sequence,protease stability score
1,DHIDEDAAHVSRVLLTLLRTGDEETLFQLLDPNMRVDVNGVELHGREEWWKHVYRRNKELGMEVKYHLHKLTVINGVAHIDFRIEIYIGDKRIEYRHEVHIEKINGVWLVREIREG,1.47
2,DEEERDAEEVFRKFMRDVFTGNWDHIHEMFDPHARSSIQVDGRHIELHGRDELTRIFIWLGVDHIELKHVHIQGEKVISIGIVRYNGKHTHLEVYLRKVDGRWIIHSVHVRIR,1.67
3,THEDEIFKEFERILREVDETGDEHDIKQYLDPNTKFHINGRDLIGMKVVTEFWRELLQKYKNLTINRRIRHVEVYNGRVHIHGHLSLHYGDKDIRVDVHIQAIKIDGRWHLQQEHYL,1.15
4,SEEEKEMEDFLREFEKNLRTGDEEQIRRLADPHVRMEVNGVEHIGRKHVSRFWYHLVRRADHIHIEVEDMHLVGEKMELIGILRLRVNGRDLTHHHRLIVDKIDGRWFLRESRIH,1.73
5,TEEDEHSRVAIEQTIRTLETGDEKEWERELDPHVRINIGEKHFHGRERAVELWLRLGVKHFRIKEVEHQGNKIIVHGSINVNGVKIEMYSIAEKIDGKWHLTHMHIP,1.53
6,SEDEESSEKAAKFWLEMLRTGDWEEFERLADPNTKTHQGDKTIHGMEIVIEILMRVKGARVDTTHVRIDVQGDFVIFDVDNILNINGVHTEIRIHLRVLKVNGRWRVKELTIKHK,1.57
7,DEHTKEMKHFLKEWLHNFFTGNEERWAHLADPHVRSDINGVELHGWDLLFRKMRKHREDLGAPHIRDFHIHSMHVINGVIHIDGEIDVDVNGVRIRSRVEIHLNVVNGRNKSEHYHHI,0.68
8,DEQNELLDRLSTILLRLLWTGDEDQWLRLADPDMKLDVGNFKTVGRERVIEIFRAWERHIRVERMHLEDTKLQGDFYFSDYRVDGQINGQRTDTRVIYIFVVVNGRMKSIKVIIE,1.34
9,SEDSERAREVWEDLFKAILTGDEDLLRELVDPNVRLEIGDKELVGWEHMIYHLRDHLRRYKNMRLELRIRHVEHQGDKLHLNVLLILIQGDKRIEFEVEVLIEKVNGRWILKEIRIK,1.38
10,SEVEHALHEILEILVKIMKTGNFEDLIRNFDPHVQLEFNGKRYHGREAEHFLRERFDHNRHHHVHEVRVQGDKVELHGKLIGEFNGREEEVHIDIIAHKINGRWIFKSVHFR,2.15
11,DEEEEEMHRRARIFLELWMTGNEEVFNTLFDPNVRLHMNIGEKTHDFVGRETVHEVNRRWLEHIRIEDFKVREIRVQGDYATSDTRIVGIFDGRRIDIDVKIHILIVDGRLKEVELRFD,2.1
12,SQEERELHRALKELFDRFITGDWDKLQKLLDPEVRLNINGQEIHGREEVWKRKIEEFEKFGIDHIKFHLEHERRQGDKIELDGRLEIRVGDKRLEHEVRIVFLKIDGKWILRSEEIN,1.47
13,EEEEEDARRASKIFYHNFLTGDEQNLLKLADPHVLLIINGVHFHGWERYKKWEEERRDKFKNVRLELEDMDVEVIGDKIESIIHLRVDIGDKRIHMEVIFIIEKVDGRWKLRSQEVRIE,1.03
14,HEEEKHMEELSRHFLHNEHTGDEKMLKHLADPHAKVFINGRELHGWDVLVEWLNKFKNIKVELHSERVINGRLFLHVNYHVNGRTTELHLILYIVDGKIHTLILEVR,0.756
15,DEERKELEEALRELKHSWETGDWRSLSEMADPNVLLKQGDFEYHGRELFLEFMRHLIEHLGIKHVEIRDMKIFENRVDMDVIIRFNGQTTRIQIILVKFNGRWFIKSVIIR,2.02
16,SELEHLMEEAWRLLLEAIRTGDEKLTNKLLDPNVRIEVGEFHYHGRELMLTWFKYELKHLRFKDSRIDHFDVVDGVAKMRTTDTNLVNGRDVTLDVIYVILKVNGRWVFHSMEIR,0.861
17,DEDHEILHRLWELLIKLLKTGDEEIMKRLADPDTKVEAEGRKLIGRDEFVKWMREFSKRFDHVEIRFKRMHIINGRVYMNGHIVEQQGEYQYRQDTIIVSEKVDGRWLITHIHIE,1.44
18,DKFERDLEEALREVLEALETGDEDRLLNLFDPHARIDIDGRDLHGWEDLTRELREIRIRHIHLHDRRIQGEWIHFDTITDGEFNGQRTTVRTHILMLKFDGRWMIREVTFI,1.51
19,SEYEEFLKEALRILIDDILTGDWRLVYKLFDPETRLNVNGQEIHGRDDVVHHLTHIAREWRMDVKVKEYNVFDGQIHMFGHLQLEFDGREYRRRVELIIIKFNGQWHLRQVVKH,1.58
20,HEDEHLSRRFAELVLTYLETGDEDSILEMADPHVRTELIIGDKTFRYIGRENLERWLHEVLRKFKNLRFVPKRLHIQGDKVIMRGYVIFDGRTHETEMIWIVINGRIHAVLHHEH,1.81
21,SHKEEEFRRLFELTIRMFLTGDEDVMSKLMDPNVRLQVHVNGKNIEIHGWENLIKTFIDLGIDHWEFKRSDIIGDFVMLDGRIEFNGRRSNTELRFLIIDGRVKSIIIKIE,2.05
22,TEDREIAKKFAEHMIHNYETGDFERILELLDPHTKIHVNGKDMHGREHWLHHLKKWGVDRIESEIRHVEIQGDKVKVDTELHYGDKTIERTVIFEKFDGRWVLREVRVD,1.12
23,DHVEKEARKFEKLLRHAETTGDEELYLKMIDPNVRIIIGEKNLVGREEVEKWLQTLGVSKVEIRHVEEKDIEIDEDHIRIHGRIIGRYNGKERDFEKHIIVQKIDGKWVLHTEEIR,0.385
24,DEEERLEREIVDHLWTNWYTGDEERMEELADPNVRLEINIGDKHIRLHGRHELLRHLHEWKERFKNIKIRLHDYRVIDGRVHLHVVYRFDGRHKTMHIELYIVNGRIKEIIHRES,1.66
25,DELIEEARRFHEKLVDNLETGNEEEFEREIDPNTRVDFNGVEIHGWKHFSKMFKEIRFHQVRLHDIRAVGNKVDSDEDVDGNYNGVRVRHRIHVVARKVNGRWLMESVIFR,1.24

row,Sequence,protease stability score
1,EEEERVAVEFFRTLQESIRTGDEKTVKELADPNTRLDVGDKHFHGMEEIRKYWLRFDHFERHTLREEDFDVVNGVMSVHGRLEVHGRYNGQRVHTHYHMVIFVLKVNGRWKITEIKLH,1
2,SEFENLQRLWLEILEHHSETGDERFMSRLADPNAKLLVNGKEFHGMEEVVEFIERLWEKFKNVRVEIHDFTVQGNKIDMDVILYYGEKVHRTEMHAVKYDGRWFMRELSIR,1.38
3,EERKESIRLAVEMIEHVFKTGNPEDEMSLFDPHAKLDVGDKHFHGREEYSRWSEEVRRRYGADHIEFRIEDVHSQGDFVDIHGKEVYIYNGVTFVIDVHFHVLKVNGRWLIKHIRIN,1.3
4,TEDDEWFNEILRLMVEAMKTGDEHILERLLDPHVRIEINGKEIHGREEFVERLEEQQRKFKGIRHELEIKHTEVINGRAHIDGRLHIDVNGRRKIYRVELVILKIDGRWSVEEIRIH,1.67
5,DEDERHARKVLELWLQSLLTGDEELTDHLLDPRVKILVDGVELHGREHARMFHRHIHMRIDHMKDFHIHSFTSVGDKVHVDIRIHFRQGDKEYRLNQRTLILKVNGRWVIEKIEVD,2.22
6,DETEDTSRHLLELFAHALRTGDEESSDRLLDPHVRIDINGKELIGRERFRELWEEMRIEWVKIRDVSIINGQVHVNGEMLMVYDGRTYTIETRIIILKVDGRWVIEHMKIG,1.43
7,SEDEELIRRFLDEFEKVIRTGNETELQRLMDPNTRFEIDGVEYHGREEVSNLLIDWAKELRLHSLHFRHIELQGEKIKIDTRENREVDGKRHVRRTEIILIKIDGRWYLHSMRYE,1.98
8,SEHEKFSEKYFQIWVRAVRTGDEDTLRELIDPDDRLDVNGQNFHGWEQVNEHLLHFIRKIKNVRIEVHLEHHEVQGDKIHLDMTLHLNVDGRETRHKTEIIARKIDGRWVFTEFRIK,2.26
9,TELDEQVTEVFKINERLKQTGDWKKIIDYVDPHARVEIGEFRDHGRDAAEFTMKYLGIDHFELKRVHLQGNKLHIHGELTVDGRLIHLIIISEKVDGRWITKSMTVD,0.01
10,TEDSKLITDVLRHFTEAFITGDEHTLKRMADPHVRTEWDGVHLHGWEKFLKFIVTEHRKLGIDHMRVEVDHIESYGDKIHVEGTLVVIINGQEISRHVELVMVKIDGVWLFKSRHFR,0.706
11,SEQEHFDRLAFKLLLHSIHTGDWRLLTEEFDPNTLIIIGEKIHHGMEFVREHIEVLGADHVDIEIHIRHVRHQGNKADMDMQVDIDIDVNGRRIRIRSRRRYISLKVDGRWVTTSLEIK,0.939
12,SELKQAIDDLIRRFEHIYHTGNEEIWERLADPNTRIDIDGQEIIGREQATRERREEMKKLGVERVEVELRLRNVEVVGNKLHLDGELILRYGDKTVVIDSKINLQKINGRWVIREEIYH,1.04
13,SHDEELVERVLKMYKHAIETGDEELLTLLLDPDTRLEIDGVDFHGMDIAIHILFKELLRHGIRTEHMRVEDVKVQGDFVHVDVEVNIDVDGREETERRHLVLWKFNGRWRVKHHHIH,2.35
14,DKEEVEKIAREALEAAVKGDEDKLKTYLGPDVKYVLGDQEYQGQQVAELVMKLIKKDGARLQLETLKVEGNTVQAQYQFHVDGVTRKAHITMKVKGGRVDEWQVHIDDHAKEALKKG,1.89
15,SEEEQEFRLILKEHLDKLETGDEDDLHRLMDPNVRIEIGDKEMHGREHATRFFRELRVEHVHLESYELQGEKVNLHGRMIGDINGKKVDRTVHIFLLKVNGRWIIHSWEVV,2.14
16,DDDEHNAHHAVEIWIHLLRTGDEHMLERMFDPNTRIRFNGREFHGREEAHRFIEELLRTLGVDHSHITIHDMKIQGNKVHVDTRLTLIVGDKTYSRNTHLVILKVNGRWWLHSMHFN,1.41
17,DEEEKEMRELFHHIIRLIDTGDFDTLKQLADPNTQLHIGDKHSHGREEVVRMNRHWRYHDSKIRDSHVVNGVIHVDAESNLKFDGVRTVTHVRLILYVVDGRLKSLEIRIE,0.44
18,DELTEELRHLAHLMIVSLLTGDPSVFQRYLDPNTKSVVNGKNIHGMEEFDKIILEELKRVDHLEIELKRIDAFDGVTHIDGKLKLRIGDKTVETRMEVNIFTINGKVKSIEISRQ,1.33
19,DEDEHARKFVLDRLQHAWETGDEETMEKLMDPNAKLHVNGQDFHGRDTWHKLLHDELRDMGIKHFEFELKSFESQGNKLIIDGLEISEFNGREFRHRVTLIVDKFNGRWVVQSVEIR,1.29
20,DERKEMTRHFTEEWIRLWETGDFEHMHDLFDPHARIIIDGQDHHGMEHVNERWRRIKNIRLEIKDFKVYGDKIFIDLKVTVNGREEKVEIIVVVVDGKFKMIEFRFV,2.11
21,DETEELFEEIVKIFIEAMETGDWRLLKRMVDPHVRSIQGDFHLHGRESMLELWLHIRIDRITLTDARVRIQGEKVHVDLRVKTNGIINGRRKDTQTHVHLHLDKVNGVWSITITNIIFE,0.553
22,DEDEKKLEHHLRTYEEALRTGDEELNHRLADPNTKVDVDGRYIHGRDFWREIMNQWRFKEMRFREIHLQGDKANVDTEVNIDVNGREMRTESHIISIKIDGRWMIKEVRFR,0.799
23,HELEHELEKFMQWIIEFLETGDEDALSTLLDPNVRYVINGQNLHGRSLLITTLHRLKEEIRVHWKIRDLKIQGDKAHSDGRFTIIVNGRKHSVDSHINVTIVDGRIHRVEIELR,1.7
24,SEEEKEARESIHRFEAALKTGNEESLFELLDPHVRIDVNGQELHGWKEWKHIVHENKKRVKGARFRIHHIEIINGRIHLDGEVSINGKDIRTEYIIEKIDGVWRLTEVIIR,1.28
25,DEDREDARKIFHDFIRALNTGDEDTLAELLDPNTKIHIGEFNLIGMERVREWLQRVDHTHTHIKVRRVDVVNGQIIMDTETEIHIHIGDFTLEIQTRTEMVILKINGRWFIKRVNLI,1.72
